The target of this test is V2R-bound βarr1 in HEK-293 cells (V2R: Homo sapiens; βarr1: Rattus …, UniProt P30518;P29066). Nature of the test: co-IP.

The text below walks through data of article doi:10.1101/725622 (bioRxiv, 2019).

B1: Ib30 (HA-tagged intrabody version of Fab30) (scFv, V domains shown)
VH: EVQLVESGGGLVQPGGSLRLSCAASGFNVYSSSIHWVRQAPGKGLEWVASISSYYGYTYYADSVKGRFTISADTSKNTAYLQMNSLRAEDTAVYYCARSRQFWYSGLDYWGQGTLVTVSS
VL: DIQMTQSPSSLSASVGDRVTITCRASQSVSSAVAWYQQKPGKAPKLLIYSASSLYSGVPSRFSGSRSGTDFTLTISSLQPEDFATYYCQQYKYVPVTFGQGTKVEIK
Take B1: the binding result was “binds”.
